Measurements from patent US20180244762A1 (KODIAK SCIENCES, published 2018).

B1: rhVEGFA-165 (ligand, human, UniProt P15692-4 27-191, looked up)
chain: APMAEGGGQNHHEVVKFMDVYQRSYCHPIETLVDIFQEYPDEIEYIFKPSCVPLMRCGGCCNDEGLECVPTEESNITMQIMRIKPHQGQHIGEMSFLQHNKCECRPKKDRARQENPCGPCSERRKHLFVQDPQTCKCSCKNTDSRCKARQLELNERTCRCDKPRR
modifications: biotinylated in Example 34
B2: aflibercept (Fc fusion, UniProt P17948 129-230, looked up, not shown: a dimerising Fc or GST)
chain: SDTGRPFVEMYSEIPEIIHMTEGRELVIPCRVTSPNITVTLKKFPLDTLIPDGKRIIWDSRKGFIISNATYKEIGLLTCEATVNGHLYKTNYLTHRQTNTIIDVVLSPSHGIELSVGEKLVLNCTARTELNVGIDFNWEYPSSKHQHKKLVNRDLKTQSGSEMKKFLSTLTIDGVTRSDQGLYTCAASSGLMTKKNSTFVRVHEK

Columns and labels:
[1] = biological target: B2; assay: optical biosensor (Proteon XPR36 / Biacore 2000), binder amine-coupled, rhVEGFA-165 injected, 25 C
Method: (§1) Binding studies were performed at 25° C. and 37° C. using BioRad Proteon XPR36 and Biacore 2000 optical biosensors equipped with GLM (Proteon) and CM4 (Biacore) sensor chips and equilibrated with running buffer (10 m/M HEPES, 150 mM NaCl, 0.005% Teen-20, 0.2 mg/ml BSA).
Binding of the coupled proteins to the ligands was determined by standard methodology.

[2] = biological target: B1; assay: cell-based or functional assay
[3] = biological target: T1, recombinant human PDGF-BB (human, UniProt P01127 82-190); assay: SPR (Biacore T200, 25 C), binder captured by anti-human IgG, PDGF-BB as analyte, run A
T1 construct: also called rhPDGF-BB; rhPDGFBB
Method: (§2) Each PDGF/VEGF variant was captured to a level of approximately 150 RUs. The running and sample buffer for the PDGF analysis was HBS-EP+300mM NaCl (10 mM 4-(2-hydroxyethyl)-1-piperazineethanesulfonic acid (HEPES) pH 7.4, 300 mM NaCl, 3mM ethylenediaminetetraacetic acid (EDTA), 0.05% (v/v) Tween-20). […] The surface was then regenerated with a 30 second pulse of 3M MgCl₂, a 30 second pulse of an ionic regeneration buffer (0.46M KSCN, 1.83 M MgCl2, 0.92 M urea, and 1.83 M guanidine-HCI pH7.4, Andersson et al., Analytical Chemistry, 1999) and then equilibrated with a 30 second pulse of HBS-EP+ 300 mM NaCl running buffer.
(§3) All SPR assays were performed at 25° C. with a data collection rate of1Hz using a Biacore T200 instrument (GE Healthcare). The resulting PDGP and VEGP sensorgrams were double referenced using both a control surface and buffer injections. The rate constants were determined by fitting the data to a 1:1 Langmuir model with Biacore T200 evaluation software v2.0 and the equation […].

[4] = biological target: T1, recombinant human PDGF-BB; assay: SPR (Biacore T200, 25 C), binder captured by anti-human IgG, PDGF-BB as analyte, run B
Method: as §2, §3

[5] = biological target: T1, recombinant human PDGF-BB; assay: SPR (Biacore T200, 25 C), binder captured by anti-human IgG, PDGF-BB as analyte, average +/- SD of the runs
Method: as §2, §3

[6] = biological target: T1, recombinant human PDGF-BB; assay: cell-based or functional assay
[7] = biological target: T1, recombinant human PDGF-BB; assay: optical biosensor (Proteon XPR36 / Biacore 2000), binder amine-coupled, rhPDGF-BB injected, 25 C
Method: as §1

[8] = biological target: T1, recombinant human PDGF-BB; assay: competitive ELISA: binder preincubated with 0.2 nM rhPDGF-BB, competitor immobilized PDGFR/Fc
[9] = biological target: T1, recombinant human PDGF-BB; assay: SPR (Biacore T200, 25 C), binder captured by anti-human IgG, PDGF-BB as analyte, run C
Method: as §2, §3

T1 sequence (P01127 82-190): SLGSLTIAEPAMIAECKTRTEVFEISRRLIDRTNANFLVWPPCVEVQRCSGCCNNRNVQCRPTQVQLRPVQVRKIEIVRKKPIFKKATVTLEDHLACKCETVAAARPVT

Binder: B1
- Kd [1]: 1.56 pM

Binder: B2
- Inhibition of VEGF induced proliferation of HRMVECs, IC50 [2]: 550 pM

B3: TAF443 (PDGFRβ-GS10-anti-VEGF-A heavy chain (L443C)/anti-VEGF-A light chain) (other)
heavy: LVVTPPGPELVLNVSSTFVLTCSGSAPVVWERMSQEPPQEMAKAQDGTFSSVLTLTNLTGLDTGEYFCTHNDSRGLETDERKRLYIFVPDPTVGFLPNDAEELFIFLTEITEITIPCRVTDPQLVVTLHEKKGDVALPVPYDHQRGFSGIFEDRSYICKTTIGDREVDSDAYYVYRLQVSSINVSVNAVQTVVRQGENITLMCIVIGNEVVNFEWTYPRKESGRLVEPVTDFLLDMPYHIRSILHIPSAELEDSGTYTCNVTESVNDHQDEKAINITVVESGGGGGSGGGGSEVQLVESGGGLVQPGGSLRLSCAASGYDFTHYGMNWVRQAPGKGLEWVGWINTYTGEPTYAADFKRRFTFSLDTSKSTAYLQMNSLRAEDTAVYYCAKYPYYYGTSHWYFDVWGQGTLVTVSSASTKGPSVFPLAPSSKSTSGGTAALGCLVKDYFPEPVTVSWNSGALTSGVHTFPAVLQSSGLYSLSSVVTVPSSSLGTQTYICNVNHKPSNTKVDKKVEPKSCDKTHTCPPCPAPEAAGAPSVFLFPPKPKDTLMISRTPEVTCVVVDVSHEDPEVKFNWYVDGVEVHNAKTKPREEQYNSTYRVVSVLTVLHQDWLNGKEYKCKVSNKALPAPIEKTISKAKGQPREPQVYTLPPSREEMTKNQVSLTCLVKGFYPSDIAVEWESNGQPENNYKTTPPVLDSDGSFFLYSKLTVDKSRWQQGNVFSCSVMHEALHNHYTQKSLSCSPGK
light: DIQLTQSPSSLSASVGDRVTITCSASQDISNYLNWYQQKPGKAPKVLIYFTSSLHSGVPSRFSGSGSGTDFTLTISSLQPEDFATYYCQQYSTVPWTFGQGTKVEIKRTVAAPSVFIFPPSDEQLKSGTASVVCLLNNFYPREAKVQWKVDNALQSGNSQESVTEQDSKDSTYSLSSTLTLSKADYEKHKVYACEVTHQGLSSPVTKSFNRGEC
notes: also called OG1321; TAF-443C
- Kd [3]: 1.54 pM
- koff [3]: 4.96e-05 s⁻¹
- kon [3]: 3.22e+07 M⁻¹ s⁻¹
- t½ [3]: 3.89 h
- Kd [4]: 1.56 pM
- koff [4]: 8.76e-05 s⁻¹
- kon [4]: 5.62e+07 M⁻¹ s⁻¹
- t½ [4]: 2.2 h
- Kd [5]: 1.55 pM
- Inhibition of PDGF induced proliferation of HPVPs, IC50 [6]: 5000 pM
- Kd [7]: 14 pM
- IC50 [8]: 46 pM

B4: TAF (PDGFRβ-GS10-anti-VEGF-A heavy chain/anti-VEGF-A light chain) (other)
heavy: LVVTPPGPELVLNVSSTFVLTCSGSAPVVWERMSQEPPQEMAKAQDGTFSSVLTLTNLTGLDTGEYFCTHNDSRGLETDERKRLYIFVPDPTVGFLPNDAEELFIFLTEITEITIPCRVTDPQLVVTLHEKKGDVALPVPYDHQRGFSGIFEDRSYICKTTIGDREVDSDAYYVYRLQVSSINVSVNAVQTVVRQGENITLMCIVIGNEVVNFEWTYPRKESGRLVEPVTDFLLDMPYHIRSILHIPSAELEDSGTYTCNVTESVNDHQDEKAINITVVESGGGGGSGGGGSEVQLVESGGGLVQPGGSLRLSCAASGYDFTHYGMNWVRQAPGKGLEWVGWINTYTGEPTYAADFKRRFTFSLDTSKSTAYLQMNSLRAEDTAVYYCAKYPYYYGTSHWYFDVWGQGTLVTVSSASTKGPSVFPLAPSSKSTSGGTAALGCLVKDYFPEPVTVSWNSGALTSGVHTFPAVLQSSGLYSLSSVVTVPSSSLGTQTYICNVNHKPSNTKVDKKVEPKSCDKTHTCPPCPAPEAAGAPSVFLFPPKPKDTLMISRTPEVTCVVVDVSHEDPEVKFNWYVDGVEVHNAKTKPREEQYNSTYRVVSVLTVLHQDWLNGKEYKCKVSNKALPAPIEKTISKAKGQPREPQVYTLPPSREEMTKNQVSLTCLVKGFYPSDIAVEWESNGQPENNYKTTPPVLDSDGSFFLYSKLTVDKSRWQQGNVFSCSVMHEALHNHYTQKSLSLSPGK
light: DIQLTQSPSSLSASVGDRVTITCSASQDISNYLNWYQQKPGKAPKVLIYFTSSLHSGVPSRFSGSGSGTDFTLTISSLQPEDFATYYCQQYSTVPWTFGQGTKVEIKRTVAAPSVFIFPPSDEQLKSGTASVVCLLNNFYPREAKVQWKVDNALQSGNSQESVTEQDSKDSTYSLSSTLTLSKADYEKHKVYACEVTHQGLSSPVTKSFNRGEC
modifications: Glycosylated PDGFR segment. The molecule is a dimer of two fusion heavy chains and two light chains.
notes: PDGFR-beta trap fused to the N-terminus of an anti-VEGF-A IgG1 heavy chain; also called TAF-WT; TAFwt
- Kd [3]: 1.01 pM
- koff [3]: 8.01e-05 s⁻¹
- kon [3]: 7.97e+07 M⁻¹ s⁻¹
- t½ [3]: 2.4 h
- Kd [4]: 1.15 pM
- koff [4]: 9.19e-05 s⁻¹
- kon [4]: 8.01e+07 M⁻¹ s⁻¹
- t½ [4]: 2.09 h
- Kd [5]: 1.1 pM
- Kd [9]: 1.19 pM
- koff [9]: 0.000103 s⁻¹
- kon [9]: 8.65e+07 M⁻¹ s⁻¹
- t½ [9]: 1.87 h

B5: TAF443-6A250K (other)
heavy: LVVTPPGPELVLNVSSTFVLTCSGSAPVVWERMSQEPPQEMAKAQDGTFSSVLTLTNLTGLDTGEYFCTHNDSRGLETDERKRLYIFVPDPTVGFLPNDAEELFIFLTEITEITIPCRVTDPQLVVTLHEKKGDVALPVPYDHQRGFSGIFEDRSYICKTTIGDREVDSDAYYVYRLQVSSINVSVNAVQTVVRQGENITLMCIVIGNEVVNFEWTYPRKESGRLVEPVTDFLLDMPYHIRSILHIPSAELEDSGTYTCNVTESVNDHQDEKAINITVVESGGGGGSGGGGSEVQLVESGGGLVQPGGSLRLSCAASGYDFTHYGMNWVRQAPGKGLEWVGWINTYTGEPTYAADFKRRFTFSLDTSKSTAYLQMNSLRAEDTAVYYCAKYPYYYGTSHWYFDVWGQGTLVTVSSASTKGPSVFPLAPSSKSTSGGTAALGCLVKDYFPEPVTVSWNSGALTSGVHTFPAVLQSSGLYSLSSVVTVPSSSLGTQTYICNVNHKPSNTKVDKKVEPKSCDKTHTCPPCPAPEAAGAPSVFLFPPKPKDTLMISRTPEVTCVVVDVSHEDPEVKFNWYVDGVEVHNAKTKPREEQYNSTYRVVSVLTVLHQDWLNGKEYKCKVSNKALPAPIEKTISKAKGQPREPQVYTLPPSREEMTKNQVSLTCLVKGFYPSDIAVEWESNGQPENNYKTTPPVLDSDGSFFLYSKLTVDKSRWQQGNVFSCSVMHEALHNHYTQKSLSCSPGK
light: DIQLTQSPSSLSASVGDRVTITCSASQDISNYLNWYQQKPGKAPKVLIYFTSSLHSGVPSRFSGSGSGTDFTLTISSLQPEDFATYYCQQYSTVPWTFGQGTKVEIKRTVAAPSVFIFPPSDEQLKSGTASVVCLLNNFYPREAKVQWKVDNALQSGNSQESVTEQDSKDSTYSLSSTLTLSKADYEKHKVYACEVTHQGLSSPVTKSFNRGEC
modifications: polymer conjugate, label 6A250K; polymer and attachment site not described for this conjugate
notes: also called R3643-6A
- Kd [3]: 1.25 pM
- koff [3]: 9.46e-05 s⁻¹
- kon [3]: 7.6e+07 M⁻¹ s⁻¹
- t½ [3]: 2.03 h
- Kd [4]: 1.04 pM
- koff [4]: 5.85e-05 s⁻¹
- kon [4]: 5.62e+07 M⁻¹ s⁻¹
- t½ [4]: 3.29 h
- Kd [5]: 1.3 pM
- Kd [9]: 1.47 pM
- koff [9]: 5.13e-05 s⁻¹
- kon [9]: 3.48e+07 M⁻¹ s⁻¹
- t½ [9]: 3.76 h

B6: TAF347 (PDGFRβ-GS10-anti-VEGF-A heavy chain (Q347C)/anti-VEGF-A light chain) (other)
heavy: LVVTPPGPELVLNVSSTFVLTCSGSAPVVWERMSQEPPQEMAKAQDGTFSSVLTLTNLTGLDTGEYFCTHNDSRGLETDERKRLYIFVPDPTVGFLPNDAEELFIFLTEITEITIPCRVTDPQLVVTLHEKKGDVALPVPYDHQRGFSGIFEDRSYICKTTIGDREVDSDAYYVYRLQVSSINVSVNAVQTVVRQGENITLMCIVIGNEVVNFEWTYPRKESGRLVEPVTDFLLDMPYHIRSILHIPSAELEDSGTYTCNVTESVNDHQDEKAINITVVESGGGGGSGGGGSEVQLVESGGGLVQPGGSLRLSCAASGYDFTHYGMNWVRQAPGKGLEWVGWINTYTGEPTYAADFKRRFTFSLDTSKSTAYLQMNSLRAEDTAVYYCAKYPYYYGTSHWYFDVWGQGTLVTVSSASTKGPSVFPLAPSSKSTSGGTAALGCLVKDYFPEPVTVSWNSGALTSGVHTFPAVLQSSGLYSLSSVVTVPSSSLGTQTYICNVNHKPSNTKVDKKVEPKSCDKTHTCPPCPAPEAAGAPSVFLFPPKPKDTLMISRTPEVTCVVVDVSHEDPEVKFNWYVDGVEVHNAKTKPREEQYNSTYRVVSVLTVLHQDWLNGKEYKCKVSNKALPAPIEKTISKAKGQPREPCVYTLPPSREEMTKNQVSLTCLVKGFYPSDIAVEWESNGQPENNYKTTPPVLDSDGSFFLYSKLTVDKSRWQQGNVFSCSVMHEALHNHYTQKSLSLSPGK
light: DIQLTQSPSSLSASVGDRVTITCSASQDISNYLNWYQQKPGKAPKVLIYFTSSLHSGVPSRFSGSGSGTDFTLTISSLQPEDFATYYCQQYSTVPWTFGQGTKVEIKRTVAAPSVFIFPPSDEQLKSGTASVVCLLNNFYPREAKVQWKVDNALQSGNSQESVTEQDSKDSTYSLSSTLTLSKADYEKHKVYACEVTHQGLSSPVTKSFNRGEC
notes: Same as TAF except for Q347C (EU numbering); also called TAF-347C
- Kd [3]: 2.03 pM
- koff [3]: 8.41e-05 s⁻¹
- kon [3]: 4.15e+07 M⁻¹ s⁻¹
- t½ [3]: 2.29 h
- Kd [4]: 1.35 pM
- koff [4]: 7.87e-05 s⁻¹
- kon [4]: 5.82e+07 M⁻¹ s⁻¹
- t½ [4]: 2.45 h
- Kd [5]: 1.7 pM
